Experimental data: the nanobody polyreactivity screen of Harvey et al. (2022)

Experiment: yeast display, Sf9 membrane polyspecificity reagent, FACS + sequencing; frameworks hold sequencing errors
Procedure, shortened: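 Nanobodies came from a synthetic yeast display library in Saccharomyces cerevisiae BJ5465, induced with galactose for 36–48 hours and stained for 1 hour at 4 °C with 10% biotinylated, detergent-solubilized Sf9 membrane reagent. Cells were enriched on streptavidin microbeads and then FACS-sorted, with low and high (top ~1%) gates set on anti-HA fluorescence for expression and streptavidin fluorescence for reagent binding. Each polyreactivity label reflects the gate a clone came from. Genes were amplified by colony PCR, sequenced by MiSeq 2 × 250 and filtered by CDR length.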

Sequence	polyreactivity (PSR sort gate)
QGQLVESGGGLVQAVGSLRLSCAASGITLRIYAMGWYRQAPGKEREMVAGITSGGSTNYADSVKGRFTLSRDNAKNTVYLQMNSLKPEDTAVYYCAARQVRTSKLHMGYWGQGTQVTVSS	low polyreactivity
QVQLVESGGCLVQAGGSLRLSFAASGSTLPYYSMGWYRHAPGKERELVAAITSSGGDTYYADSVKGRFTISRDIAKNTVYLQMNSLKPEDTAVYYCAKSFSARSTVRKLFYFAYDYWGQGTQVTVSS	low polyreactivity
QVQLVESGGGLVQAGGSLRLSCAASGSISYYYGKGWYRQAPGKERELVAAISTRGGSTYYADSVKGRFTISRDNAKNTVYLQMNSLKPEDTAVYYCNKVYYKRFYYWGQGTQVTVSS	high polyreactivity
QVQLEESGGGLVQAGGSLRLSCAASGFTFYLYTMGWYRQAPGKERELVAAISRSGDRTYYADSVKGRFSISRDNAKNTVYLQMNSLKPEDTAVYYCAARSYRPTRGDYWGQGTQVTVSS	high polyreactivity
QVQHVESGGGLVQAGGSLRLSCAASGSIFWVYVMGRYIQAPGQERELVAAITNGGSTDYADSVKGRFTISRDNAKNTVYLQMNSLKPEDTAFYYCAKRSTIWGRILITFDYWGQGTQVTVSS	low polyreactivity
QVQLVESGGGLVQAGGSLRLSCAASGRIFLWNAMGWYRPAPGKERELVAGISWRGSSTYYADSVKGRFTISRDNAKNTVYLQMNSLKPEDTAVYYCAARTRGGRGYGMYYWGQGTQVTVSS	high polyreactivity
QVQLVESGGGLVQAAGSLRLSCAASGFIFQAYAMGWYRQAPGKERELVAAISSSGGSTYYADSVKGRFTISRDNAKYTVYLKRNILKPEDTAVYYCAARSRRVSLLSESYGYWGQGTQVTVSS	high polyreactivity
QDQLVESGGGLVQAGGSLRLSCAASGRIFDTNAMGRYRQAPGKERELVATNTRSAGRTYYADSVKGRFTISRDNAKIKVFLQMNILKPEDTAVYFCNADWGPTYEIYDSWGQGTQVTVSS	low polyreactivity
QVQLVESGGGLVQAGGSLRLSCAASGSTFYNNAMGWYRQAPGKERELVAAITRTGGRTYYADSVKGRFTISRDNAKNTVYLQMNSLKPEDTAVYYCAALRYGQGSISAFDYWGQGTQVTVSS	high polyreactivity
QVQLVESGGGLVQAGGRLRLSCAASGSTLSLYDMGRYRQAPGKERELVAAITSSGGTYYADSVKGRFTISRDNAKNTVFLQMKSLKPEDTAVYYCNAYAKDARSYGFHRVNYWGQGTQVTVSS	high polyreactivity
QVQLVESGGGLVQAGGSLRLSCAASGFISAYYAMGWYRQAPGKEMELVAAISWNGGRTFYADSVKGRFTISRDNAKNTVYLQMNSLKPEDTAVYYCAARYNGYANPYYYWGQGTQVTVSS	high polyreactivity
QVHLVESGGGLVQAGGSLRLSCAASGGIFKQYAMGLYRQAPGKERDLVAAITWSGGSTYYADSVKGRFTISRDNAKNTVYLQMNRLKPVDTAVYYCAADRRYLDRDKHRYGYWGQGTQVTVSS	low polyreactivity
QVQLVETGGGLVQAGGSLRLSCAASGSTVRFNAMGWYRQAPGKERELVAVIRWRGGTTYYADSVKGRFTISRDNAKNTVYLQMNSLKPVDTAVYYCNADYWFSYTWHGSYTVGYWGQGTQVTVSS	high polyreactivity
QVQLVESGGGLVQAGGSLRLSCAASGSISYEFAMGWYRQAPGKERELVASIDSDGAGTYYADSVKGRFTISRDNAKNTVYLQMNSLKPEDTAVYYGNAEWYYPYYYSRMDYWGQGTQVTVSS	low polyreactivity
QVQLVESGGGLVQAGGSLRFSCAASGRTFYPYAMGWYRQAPGKERELVAAINGGGRTYYADSVKGRFTISRDNAKNTVYLQMNSLKPEDTAVYYCATRYPAWRYDYNYWGQGTQVSVSS	high polyreactivity
QVQLVESGGGLVQAGGSLRLSCAASGTYKYYAMGWYRHAPGKERELVAATNRGGSTNYADSVKGRFTISRDNAKNTVYLQMNSLKPEDTAVYYCAAERWYVRGRHYYYWGQGTQVTVSS	high polyreactivity
QVQLQESGGGLVQAGGSLRLSCAASGSISHYIFMGWYRQAPGKEREFVAGIGYGGTTNYADSVKGRFTISRDNAKNTVYLQMNSLKPEDTAVYYCAAVSIYWGQGTQVTVSS	low polyreactivity
QVQLVESGGGLVQAGGSLRLSCAASGSTLSHYAMGWYRQAPGKERELVAAINSNGGSTYYADSVKGRFTISRDNAKNTVYLQMNSLKPEDTAVYYCKTYFRYFSFYGRPFDYWGQGTQVTVSS	high polyreactivity
QVQLVESGGGLVQAGGSLRLSCAASGSIFLIYAMGWYRQGPGKERELVAGINWSGSRTYYADSVKGRFTISRDNAKNTVYLQMNSLKPEDTAVYDCAARVRRPLYSAYDSWGQGTQVTVSS	low polyreactivity
QVQLVESGGGLVQAGGSLRLSCAASGRIFTNAMGWYRQAPGKERELVAAISGGSNTYYADSVKGRFTISRDNAKNTVYLQMNSLKPEDTAVYYCNTDDLWWDGGYDYWGQGTQVTVSS	low polyreactivity
QVQLVESGGGLVQAGGSLRLSCAASGFTFWAYAMGWYRHAPGKEMEVVAAISKTGGRTYYADSVKGRFTISRDNAKNNDYLQINSLKPEDTAVYYCAVDITGLYYPVDYWGQGTQVTVSS	high polyreactivity
QVQLVESGGGLVQPGGSLRLSCAASGSTLRRNAMGWYRQATRIERELVSAITGSRGSTYYADSVKGRFTISLDNAKNTVYLQMNCLKPEDTAVYYCAALYYYHLLPSRYYRFVYWGQGTQVTVSS	high polyreactivity

Sequence	polyreactivity (PSR sort gate)
QVQLVESGGGLVQAGGSLRLSCAASGSIFGPYAMVWYRQAPGKERELVAAISSRGSSTYYADSVKGRFTISRDNAKNTVYLQMNSLKPEDTAVYYCAALYYVYGYDYWGQGTQVTVSS	high polyreactivity
QVQLLESGGGLVQAGGSLRLSCAASGYTFQIKAMGWYRQAPGKERELVAAITSGGRTYYADSVKGLFTISRDNAKNTVYLQMNSLKPEDTAVYYCNKVPRRGVDYWGQGTQVTVSS	low polyreactivity
QVQLVESGGGLVQAGGSLRLSCAASGRIFLGYAMGRYRPARGKERELVAAISTSGGSTYYADSVKGRFTISRDNAKNTVYLQMNSLKPEDTAVYYCAARNVRTYVTGVDYDYWGQGTQVTVSS	high polyreactivity
QVQLVESGGCIVQAGGSLRLSCAASGFTFRTNTKGWYRQAPGKDRELVAAISRSGGSTYYADSVKGRFTISRDNAKNTVYLQMNSLKPEDTAVYDCNAVGRSDSYYLAYNYWGQGTQVTVSS	high polyreactivity
QVQLVESGGGLVQAGGSLRLSCAASGYIFRHYAMVWYRQAPGKERELVAAISSSGGRTNYADSLKGRFTISRDNAKITVYLQMNSLKPEDTAVYYCNAGRYQYLGGYGYWGQGTQVTVSS	low polyreactivity
QVQLVESGRGLVQAGGSLRLSCAASGSTFQVYTMGWYRQAPGKEREFVASISWSGSSTYYADSVKGRFTISRDNAKNTVYLQMNSLKPEDTAVYYCAARVGSTYRRYYYWGQGTQVTVSS	high polyreactivity
QVQLVESGGGLVQAGGSLRLSCAASGLIFQWYAMGWYRQAPGKERELVAAITGSGGSTYYADSVKGRFTISRDNAKNTVYLQMNSLKPEDTAVYYCNAGASRRYGYWGQGTQVTVSS	high polyreactivity
QVQLVDSGGGLVQAGGSLSLSCAASGSIFNVYGMGWYRQAPGKERELVARINSRGGITYYADSVKGRFTISRDNAKNTVYLQMNSLKPEDTAVYYCATDTQDLQGYSWFDYWGQGTQVTVSS	high polyreactivity
QVQLVESGGGLVQAGGSLRLSCAASGFTFGPYDLGWYRQAPGKERELVAAITDSSGSTHYADSVKGRFTISRDNAKNTVYLQMNSLKPEDTAVYYCAADDSSRTTYDYWGQGTQVTVSS	low polyreactivity
QVQLGESGGGLVQAGGSLRLSCAASGRIFSHNAMGWDRQAPGKERELVAVISRSGTGTYYADSVKGRFTISRDNAKNTVYLQMNSLKPEDTAVYYCNTYYEWWYYWGQGTQVTVSS	high polyreactivity
QVQLVESGGGLVQAGGSLLLSCAASGITFKWNDMGWYRQAPGKEREFVAAITGSTGSTFYADSVKGRFTISRDNAKNSVYLQMNSLNTEDTAVYYCAAGPWFYYWGQGTQVTVSS	low polyreactivity
QVQLVESGGGLVQAGGSLRLSCAASGFIFWSYAMGWYRQERGNEREWVAAISWSGGRTYYADSVKGRFTISRDNAKNTVYLQMNSLKPEDTAVYYCAAVKRDSSQYPALDYWGQGTQVTVSS	high polyreactivity
QVQLVESRGAIVQAGASLRLSSAASGFTFWDYAMGCYRQAPGKERELVAAISSRGTRTYYADSVKGRFTISRDNAKNTVYLQMNSLKPEDTAVYYCATASPDPDYIHNYWGQGTQVTVSS	high polyreactivity
QVQLVESGGGLVQEGGSLRLICAASGRTFGTNAMGWYRQAPAKERELVAGINYSDGSTYYADSVKGRFTITRDNAKNTVYLQMNSMKPEDTAVYYCAADPGWAWWELNYWGQGTQVTVSS	low polyreactivity
QVQLVESGGGLVQAGGSLRLSCAASGSTSTYNAMGWYRQAPGKERELVAAITESGGSTYYADSVKGRFTISRDNAKNTVYLQMNSLKPEDTAVYYCAADLTYTYEFWGQGTQVTVSS	low polyreactivity
QVQLVESGGGLVQAGGSLRLSCAASGFTFSGNAMGWYRQAPGKEREIVAAITARGGNTFYADSVKGRFTISRDNAKNTVYLQMNSLQPEETAVSYCKRGPYYSSSKYRFSAYHRAYWGQGNQVTVSS	high polyreactivity
QVQLVESGGGLVQAGGSLRLSCAASGSIFGRYVKGWYRQAPGKERELVATISSGGSTYYADSVKGRFTISRDNAKNTVYFQMISLKPEDTAVYYCAASYSRFVDWIGDPGYDYWGQGTQVTVSS	low polyreactivity
QVQLVESGGGLVQAGGSLRLSCAASGSTFYKYDMGWYRQAPGKEREFVAVISWSGGNTYYADSVKGRFTISRDNAKNNVYLQMNSLKPEDTAVYYCAADNYPDEYDYWGQGTQVTVSS	low polyreactivity
QVQLVESGGGLVQAGGSLRLSCAASGSTFRYNLMGWYRQAPGKERELVAAISAVGSTYYADSVKGRFTISRDNAKNTVYLQMNSLKAEDTAVYYCAASYDWRAYRRDFYYWLTGDYWGQGTQVTVSS	low polyreactivity
QVQLVESGGGLVQAGGSLRLSCAASGSIFHYNAMGWYRQAPGKERELVAAITSGGSTYYADSVKGRFTISRDNAKKTVYLQMNSLKPEDTAVYYCATVFYRTRYVPYGYWGQGTQVTVSS	low polyreactivity
QVQLVESGGGLVQAGGSLRLSCAASGFIFRYYAMGWYRQAPGKERELVASISYSGGTTYYADSVKGRFTISRDNAKNTVYLQMNSLKPEDTAVYYCNVYSRTHYQTYTDDYWGQGTQVTVSS	high polyreactivity
